Assays:
[1] = test system: GFP-14-3-3β and its binding proteins; assay: GFP-14-3-3β co-IP with LC-MS/MS label-free quantification, untreated versus PP1c-treated; set-up: species or system human; conditions: label-free quantification, 3 replicates each
GFP-14-3-3β = GFP-14-3-3β co-IP with LC-MS/MS, untreated GFP-14-3-3β versus GFP control (14-3-3 interactome); type: binding, human; conditions: label-free quantification, 3 replicates each
[2] = GFP-14-3-3β co-IP LC-MS/MS, PP1 vs untreated, student's t-test
[3] = GFP-14-3-3β co-IP LC-MS/MS, untreated vs GFP, student's t-test

Molecule | Difference (log2), PP1 vs untreated [1, 2] [log2] | Difference (log2), untreated vs GFP (GFP-14-3-3β; [3]) [log2] | Difference (log2), PP1 vs untreated ([1]; log2 difference, pairwise comparison PP1 vs untreated) | Difference (log2), untreated vs GFP (GFP-14-3-3β; log2 difference, pairwise comparison untreated vs GFP)
MYO1E (protein, UniProt Q12965 1-1108, looked up) Unconventional myosin-Ie: MGSKGVYQYHWQSHNVKHSGVDDMVLLSKITENSIVENLKKRYMDDYIFTYIGSVLISVNPFKQMPYFGEKEIEMYQGAAQYENPPHIYALADNMYRNMIIDRENQCVIISGESGAGKTVAAKYIMSYISRVSGGGTKVQHVKDIILQSNPLLEAFGNAKTVRNNNSSRFGKYFEIQFSPGGEPDGGKISNFLLEKSRVVMRNPGERSFHIFYQLIEGASAEQKHSLGITSMDYYYYLSLSGSYKVDDIDDRREFQETLHAMNVIGIFAEEQTLVLQIVAGILHLGNISFKEVGNYAAVESEEFLAFPAYLLGINQDRLKEKLTSRQMDSKWGGKSESIHVTLNVEQACYTRDALAKALHARVFDFLVDSINKAMEKDHEEYNIGVLDIYGFEIFQKNGFEQFCINFVNEKLQQIFIELTLKAEQEEYVQEGIRWTPIEYFNNKIVCDLIENKVNPPGIMSILDDVCATMHAVGEGADQTLLQKLQMQIGSHEHFNSWNQGFIIHHYAGKVSYDMDGFCERNRDVLFMDLIELMQSSELPFIKSLFPENLQADKKGRPTTAGSKIKKQANDLVSTLMKCTPHYIRCIKPNETKKPRDWEESRVKHQVEYLGLKENIRVRRAGYAYRRIFQKFLQRYAILTKATWPSWQGEEKQGVLHLLQSVNMDSDQFQLGRSKVFIKAPESLFLLEEMRERKYDGYARVIQKSWRKFVARKKYVQMREEASDLLLNKKERRRNSINRNFIGDYIGMEEHPELQQFVGKREKIDFADTVTKYDRRFKGVKRDLLLTPKCLYLIGREKVKQGPDKGLVKEVLKRKIEIERILSVSLSTMQDDIFILHEQEYDSLLESVFKTEFLSLLAKRYEEKTQKQLPLKFSNTLELKLKKENWGPWSAGGSRQVQFHQGFGDLAVLKPSNKVLQVSIGPGLPKNSRPTRRNTTQNTGYSSGTQNANYPVRAAPPPPGYHQNGVIRNQYVPYPHAPGSQRSNQKSLYTSMARPPLPRQQSTSSDRVSQTPESLDFLKVPDQGAAGVRRQTTSRPPPAGGRPKPQPKPKPQVPQCKALYAYDAQDTDELSFNANDIIDIIKEDPSGWWTGRLRGKQGLFPNNYVTKI | -0.1954 | 1.374 | – | –
LSM12 (protein, UniProt Q3MHD2 2-195, looked up) Protein LSM12: AAPPGEYFSVGSQVSCRTCQEQRLQGEVVAFDYQSKMLALKCPSSSGKPNHADILLINLQYVSEVEIINDRTETPPPLASLNVSKLASKARTEKEEKLSQAYAISAGVSLEGQQLFQTIHKTIKDCKWQEKNIVVMEEVVITPPYQVENCKGKEGSALSHVRKIVEKHFRDVESQKILQRSQAQQPQKEAALSS | – | – | 1.729 | 1.227
ILF3 (protein, UniProt Q12906 1-894, looked up) Interleukin enhancer-binding …: MRPMRIFVNDDRHVMAKHSSVYPTQEELEAVQNMVSHTERALKAVSDWIDEQEKGSSEQAESDNMDVPPEDDSKEGAGEQKTEHMTRTLRGVMRVGLVAKGLLLKGDLDLELVLLCKEKPTTALLDKVADNLAIQLAAVTEDKYEILQSVDDAAIVIKNTKEPPLSLTIHLTSPVVREEMEKVLAGETLSVNDPPDVLDRQKCLAALASLRHAKWFQARANGLKSCVIVIRVLRDLCTRVPTWGPLRGWPLELLCEKSIGTANRPMGAGEALRRVLECLASGIVMPDGSGIYDPCEKEATDAIGHLDRQQREDITQSAQHALRLAAFGQLHKVLGMDPLPSKMPKKPKNENPVDYTVQIPPSTTYAITPMKRPMEEDGEEKSPSKKKKKIQKKEEKAEPPQAMNALMRLNQLKPGLQYKLVSQTGPVHAPIFTMSVEVDGNSFEASGPSKKTAKLHVAVKVLQDMGLPTGAEGRDSSKGEDSAEETEAKPAVVAPAPVVEAVSTPSAAFPSDATAEQGPILTKHGKNPVMELNEKRRGLKYELISETGGSHDKRFVMEVEVDGQKFQGAGSNKKVAKAYAALAALEKLFPDTPLALDANKKKRAPVPVRGGPKFAAKPHNPGFGMGGPMHNEVPPPPNLRGRGRGGSIRGRGRGRGFGGANHGGYMNAGAGYGSYGYGGNSATAGYSQFYSNGGHSGNASGGGGGGGGGSSGYGSYYQGDNYNSPVPPKHAGKKQPHGGQQKPSYGSGYQSHQGQQQSYNQSPYSNYGPPQGKQKGYNHGQGSYSYSNSYNSPGGGGGSDYNYESKFNYSGSGGRSGGNSYGSGGASYNPGSHGGYGGGSGGGSSYQGKQGGYSQSNYNSPGSGQNYSGPPSSYQSSQGGYGRNADHSMNYQYR | -0.2231 | 3.029 | – | –
SMC3 (protein, UniProt Q9UQE7 1-1217, looked up) Structural maintenance of …: MYIKQVIIQGFRSYRDQTIVDPFSSKHNVIVGRNGSGKSNFFYAIQFVLSDEFSHLRPEQRLALLHEGTGPRVISAFVEIIFDNSDNRLPIDKEEVSLRRVIGAKKDQYFLDKKMVTKNDVMNLLESAGFSRSNPYYIVKQGKINQMATAPDSQRLKLLREVAGTRVYDERKEESISLMKETEGKREKINELLKYIEERLHTLEEEKEELAQYQKWDKMRRALEYTIYNQELNETRAKLDELSAKRETSGEKSRQLRDAQQDARDKMEDIERQVRELKTKISAMKEEKEQLSAERQEQIKQRTKLELKAKDLQDELAGNSEQRKRLLKERQKLLEKIEEKQKELAETEPKFNSVKEKEERGIARLAQATQERTDLYAKQGRGSQFTSKEERDKWIKKELKSLDQAINDKKRQIAAIHKDLEDTEANKEKNLEQYNKLDQDLNEVKARVEELDRKYYEVKNKKDELQSERNYLWREENAEQQALAAKREDLEKKQQLLRAATGKAILNGIDSINKVLDHFRRKGINQHVQNGYHGIVMNNFECEPAFYTCVEVTAGNRLFYHIVDSDEVSTKILMEFNKMNLPGEVTFLPLNKLDVRDTAYPETNDAIPMISKLRYNPRFDKAFKHVFGKTLICRSMEVSTQLARAFTMDCITLEGDQVSHRGALTGGYYDTRKSRLELQKDVRKAEEELGELEAKLNENLRRNIERINNEIDQLMNQMQQIETQQRKFKASRDSILSEMKMLKEKRQQSEKTFMPKQRSLQSLEASLHAMESTRESLKAELGTDLLSQLSLEDQKRVDALNDEIRQLQQENRQLLNERIKLEGIITRVETYLNENLRKRLDQVEQELNELRETEGGTVLTATTSELEAINKRVKDTMARSEDLDNSIDKTEAGIKELQKSMERWKNMEKEHMDAINHDTKELEKMTNRQGMLLKKKEECMKKIRELGSLPQEAFEKYQTLSLKQLFRKLEQCNTELKKYSHVNKKALDQFVNFSEQKEKLIKRQEELDRGYKSIMELMNVLELRKYEAIQLTFKQVSKNFSEVFQKLVPGGKATLVMKKGDVEGSQSQDEGEGSGESERGSGSQSSVPSVDQFTGVGIRVSFTGKQGEMREMQQLSGGQKSLVALALIFAIQKCDPAPFYLFDEIDQALDAQHRKAVSDMIMELAVHAQFITTTFRPELLESADKFYGVKFRNKVSHIDVITAEMAKDFVEDDTTHG | -0.1648 | 0.1297 | – | –
GEMIN8 (protein, UniProt Q9NWZ8 1-242, looked up) Gem-associated protein 8: MAAVKASTSKATRPWYSHPVYARYWQHYHQAMAWMQSHHNAYRKAVESCFNLPWYLPSALLPQSSYDNEAAYPQSFYDHHVAWQDYPCSSSHFRRSGQHPRYSSRIQASTKEDQALSKEEEMETESDAEVECDLSNMEITEELRQYFAETERHREERRRQQQLDAERLDSYVNADHDLYCNTRRSVEAPTERPGERRQAEMKRLYGDSAAKIQAMEAAVQLSFDKHCDRKQPKYWPVIPLKF | -0.2137 | 0.1049 | – | –
KIFC3 (protein, UniProt Q9BVG8 1-833, looked up) Kinesin-like protein KIFC3: MVPSRRTWNLGATPSLRGLWRVGRAPEPEPGMARPAPAPASPAARPFPHTGPGRLRTGRGKDTPVCGDEDSSARSAARPALAQCRALSVDWAGPGSPHGLYLTLQVEHLKEKLISQAQEVSRLRSELGGTDLEKHRDLLMVENERLRQEMRRCEAELQELRTKPAGPCPGCEHSQESAQLRDKLSQLQLEMAESKGMLSELNLEVQQKTDRLAEVELRLKDCLAEKAQEEERLSRRLRDSHETIASLRAQSPPVKYVIKTVEVESSKTKQALSESQARNQHLQEQVAMQRQVLKEMEQQLQSSHQLTARLRAQIAMYESELERAHGQMLEEMQSLEEDKNRAIEEAFARAQVEMKAVHENLAGVRTNLLTLQPALRTLTNDYNGLKRQVRGFPLLLQEALRSVKAEIGQAIEEVNSNNQELLRKYRRELQLRKKCHNELVRLKGNIRVIARVRPVTKEDGEGPEATNAVTFDADDDSIIHLLHKGKPVSFELDKVFSPQASQQDVFQEVQALVTSCIDGFNVCIFAYGQTGAGKTYTMEGTAENPGINQRALQLLFSEVQEKASDWEYTITVSAAEIYNEVLRDLLGKEPQEKLEIRLCPDGSGQLYVPGLTEFQVQSVDDINKVFEFGHTNRTTEFTNLNEHSSRSHALLIVTVRGVDCSTGLRTTGKLNLVDLAGSERVGKSGAEGSRLREAQHINKSLSALGDVIAALRSRQGHVPFRNSKLTYLLQDSLSGDSKTLMVVQVSPVEKNTSETLYSLKFAERVRSVELGPGLRRAELGSWSSQEHLEWEPACQTPQPSARAHSAPSSGTSSRPGSIRRKLQPSGKSRPLPV | -0.1977 | 1.361 | – | –
TFCP2 (protein, UniProt Q12800 1-502, looked up) Alpha-globin transcription …: MAWALKLPLADEVIESGLVQDFDASLSGIGQELGAGAYSMSDVLALPIFKQEESSLPPDNENKILPFQYVLCAATSPAVKLHDETLTYLNQGQSYEIRMLDNRKLGELPEINGKLVKSIFRVVFHDRRLQYTEHQQLEGWRWNRPGDRILDIDIPMSVGIIDPRANPTQLNTVEFLWDPAKRTSVFIQVHCISTEFTMRKHGGEKGVPFRVQIDTFKENENGEYTEHLHSASCQIKVFKPKGADRKQKTDREKMEKRTPHEKEKYQPSYETTILTECSPWPEITYVNNSPSPGFNSSHSSFSLGEGNGSPNHQPEPPPPVTDNLLPTTTPQEAQQWLHRNRFSTFTRLFTNFSGADLLKLTRDDVIQICGPADGIRLFNALKGRMVRPRLTIYVCQESLQLREQQQQQQQQQQKHEDGDSNGTFFVYHAIYLEELTAVELTEKIAQLFSISPCQISQIYKQGPTGIHVLISDEMIQNFQEEACFILDTMKAETNDSYHIILK | -0.2131 | 0.6477 | – | –
